This is an account of results in paper PMC6884526 (2019).

This assay concerns the target MBP-TrkB-454-821 (Rattus norvegicus (Rat), UniProt Q63604). Nature of the assay: pull-down (MBP-TrkB on amylose resin, GST-ActI-SIPA1L2 prey, immunoblot). (In western blotting, separated proteins are transferred to a membrane and probed.)

Chain of MBP-TrkB-454-821 (Q63604 454-821): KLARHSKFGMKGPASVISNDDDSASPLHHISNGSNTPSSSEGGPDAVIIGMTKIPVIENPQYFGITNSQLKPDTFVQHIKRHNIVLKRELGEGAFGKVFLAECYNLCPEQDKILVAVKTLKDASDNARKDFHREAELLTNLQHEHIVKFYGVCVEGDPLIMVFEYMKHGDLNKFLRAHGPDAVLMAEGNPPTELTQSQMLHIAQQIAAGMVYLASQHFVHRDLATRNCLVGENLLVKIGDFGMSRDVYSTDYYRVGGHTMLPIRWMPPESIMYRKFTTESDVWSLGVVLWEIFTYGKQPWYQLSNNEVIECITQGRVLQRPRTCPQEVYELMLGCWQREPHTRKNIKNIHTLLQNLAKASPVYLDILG

B1: GST-ActI-SIPA1L2-1-624 (protein)
chain: MSDPRPSQAEKHKLGRAASKFKDPSRAMQSDDYFARKFKAINGSMGPATLNTSSLSEGGGGGGGPANGTPAVPKMGVRARVSEWPPKKDCSKDLACKTLWESRSQSSYESATSIIQNGQNDQVDRQQEEQLDLDFVEAKYTIGDIFVHSPQRGLHPIRQRSNSDITISDIDTEDVLDQHAVNPNTGAALHREYGSTSSIDRQGLSGENVFAMLRGYRIESYDPKVTSSFGFPDFFPCDTAISPSLHAAAQISRGEFVRISGLDYMDGGLLMGRDRDKPFKRRLKSESVETSLFRKLRTVKSEHETFKFTSDLEEGRLDRGIRPWSCQRCFAHYDVQSILFNINEAMATRASVGKRKNITTGASAASQTPVPVGPAGGCESPLGSKEDLNAKENPDADEGDGKSNDLVLSCPYFRNETGGEGDRRIALSRANSASFSSGESCSFESSLSSHCTNAGVSVLEVPRENQPIHREKVKRYIIEHVDLGAYYYRKFFYGKEHQNYFGIDENLGPVAVSIRREKVEDPREKEGSQFNYRVAFRTSELTTLRGAILEDAVPSTARHGTARGLPLKEVLEYVIPELSIPCLRQAANSPKVPEQLLKLDEQGLSFQHKIGILYCKAGQSTEEE
In the case of B1, the binding result was “binds”.
